Measured values reported in patent publication EP1595946A2 (Sugen, Inc., dated 2005).

Molecular target: T1, SULU1-coiled-coil2 GST fusion (Construct 1; amino acids 752-898) (human, UniProt Q5R4F3 752-898 (Pongo abelii entry))
T1 construct: Immobilised bait in T7 phage display; also called SULU1 ccl; not shown: glutathione S-transferase (GST) of vector pGEX-4T; baits were made as C-terminal fusions to GST, expressed in E. coli
T1 sequence: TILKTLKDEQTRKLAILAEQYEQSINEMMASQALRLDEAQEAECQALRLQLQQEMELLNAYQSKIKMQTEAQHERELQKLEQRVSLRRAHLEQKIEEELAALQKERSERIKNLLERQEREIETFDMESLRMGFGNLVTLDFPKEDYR
Test: T7 phage display, H441 cDNA library, GST-fused bait; interactor listed

B1: GEK2 coiled-coil domain displayed on T7 phage (677-820 of SEQ #26) (other)
chain: KESMKQKMEEHTQKKQLLDRDFVAKQKEDLELAMKRLTTDNRREICDKERECLMKKQELLRDREAALWEMEEHQLQERHQLVKQQLKDQYFLQRHELLRKHEKEREQMQRYNQRMIEQLKVRQQQEKARLPKIQRSEGKTRMAM
notes: also called GEK2 cc dom; GEK2 CC1; not shown: T7 phage coat protein of vector T7Select1-1b to which the cDNA fragment is fused
binding result: binds
